In assay [1] the target is F protein on live RSV virus (strain not stated) (respiratory syncytial virus (RSV)). Description: cell-based or functional assay.
The target of assay [2] is T1, 12-mer Ga derived peptide HFEVFNFVPCSI
T1 construct: also called (169) HFEVFNFVPCSI (176)
T1 peptide: HFEVFNFVPCSI
Description: array of overlapping 12-mer peptides, 1 ug/ml antibody, chemiluminescence.

In assay [3] the target is T2, RSV G protein of group A strain (Ga protein) (respiratory syncytial virus (RSV), …, UniProt P03423 1-298).
T2 construct: also called RSV-Ga; RSV-GA2 protein
T2 sequence: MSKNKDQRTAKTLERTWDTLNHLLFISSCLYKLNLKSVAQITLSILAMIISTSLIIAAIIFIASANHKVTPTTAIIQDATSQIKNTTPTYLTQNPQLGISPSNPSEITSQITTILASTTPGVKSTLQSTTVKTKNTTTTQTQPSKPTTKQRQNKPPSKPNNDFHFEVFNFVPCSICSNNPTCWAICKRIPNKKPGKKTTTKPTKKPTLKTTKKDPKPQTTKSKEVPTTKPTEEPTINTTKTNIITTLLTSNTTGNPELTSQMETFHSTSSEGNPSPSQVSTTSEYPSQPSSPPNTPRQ
As to the kind of experiment: Biacore, antibody on chip, recombinant Ga in flow. (In SPR one partner is held on a chip, and binding of the other changes the refractive index at the surface.)

In assay [1], Synagis® (palivizumab) (antibody) displayed an IC50, plaque assay for neutralization of RSV on HEp2 cells with rabbit complement of 300 ng/mL and an affinity according to the plaque neutralization assay of 2 nM.

B1: murine monoclonal antibody 131-2G (antibody, V domains shown)
VH: EVQLQQSGPELVKPGTSVKISCKASGYSFTGFTMNWVKQSHGKNLEWFGLINPFNGNTGYNQKFKGKATLTVDKSSSTAFMELLSLTSEDSAVYYCARSGKSYDYEAWFTYWGQGTLVTVSA
VL: DIVMTQTTLSLPVSLGNQASISCRSSQTIVHTNGNTYLEWYLQKPGQSPKLLIYKVSNRFSGVPDRFSGSGSGTDFILNISRVEAEDLGVYYCFQGSHVPFTFGSGTKLEIKR
notes: Only variable regions are printed
B1: the binding result in assay [2] is “binds”.

B2: 10C6 (antibody, V domains shown)
VH: QVQLVESGGGVVQPGRSLRLSCEASGFTFSGYAMHWVRQAPAKGLEWVAVISFDGSNNYYADSVKGRFTISRDNSKNMLFLQMNSLRAEDTAVYYCVRPDVIAVAGTALSNPFDLWGLGTMVTVSS
VL: EIVMTQSPATLSVSPGERALSCRASQSVRSNLVWYQQKPGQAPRLLIFGASTRATGIPARFSGSGSGTEFTLTISSLQSEDFALYFCQQNNNWPPTFGQGTRLEIK
Broadly, the Kd is the constant that tells how readily two partners part at equilibrium. Turning to B2, in assay [3], the dissociation constant Kd was 0.055 nM.

The values are drawn from patent US20090130120A1 (published 2009).
